# Measured values: US20090280138A1 (OXFORD BIOMEDICA UK, published 2009)
# Read-outs that look alike come from different tables or passages of the source.
# Legend:
# [1] = target: T1, MHC class I allele A*0101 monomer (human, biotinylated, bound to streptavidin-coated plate); test: iTopia, multiparametric iScore
# T1 construct: placeholder peptide and b2M removed, then reconstituted with test peptide and fresh b2M; also called A1; HLA-A1
# How it was run: (§1)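 9-mer peptides were tested on plates coated with MHC molecules, measuring binding, off-rate and affinity by ELISA in duplicate with allele-specific positive controls.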
# [2] = target: T2, MHC class I allele A*0201 monomer (human, biotinylated, bound to streptavidin-coated plate); test: iTopia, multiparametric iScore
# T2 construct: also called A2; HLA-A2
# How it was run: as §1
# [3] = target: T3, MHC class I allele A*0301 monomer (human, biotinylated, bound to streptavidin-coated plate); test: iTopia, multiparametric iScore
# T3 construct: also called A3; HLA-A3
# How it was run: as §1
# [4] = target: T2, MHC class I allele A*0201 monomer; test: iTopia, multiparametric iScore; remark: listed apart in the source
# Description: (§2) The 9 mers were tested for Peptide Binding, Off Rate and Affinity using iTopia Epitope Discovery System in accordance with the manufacturer's instructions. Briefly, 96 well microtitre plates coated with MHC molecules representing different MHC alleles are used to identify candidate peptides. […] Determinations are performed in duplicate using an ELISA plate reader and included allele specific positive controls.
# (§3) Finally, multiparametric analysis is performed on the results from these assays and an iScore is generated. The iScore represents a measure of the overall quality of peptide-MHC binding, enabling candidate peptides to be ranked in order of binding quality and allowing rational prioritisation of peptides for functional cellular follow-up studies.
# [5] = target: T3, MHC class I allele A*0301 monomer; test: iTopia, multiparametric iScore; remark: listed apart in the source
# Description: as §2, §3
# [6] = target: T1, MHC class I allele A*0101 monomer; test: iTopia, multiparametric iScore; remark: listed apart in the source
# Description: as §2, §3
# [7] = target: T4, MHC class I molecule HLA-A*0201 (iTopia plate-bound monomer) (biotin (bound to streptavidin-coated plate)); test: iTopia off-rate assay, 37 C; fit R^2 0.89
# T4 construct: also called A2
# Description: as §2
# (§4) A one-phase exponential decay curve, with a plateau given equal to 0, was generated using GraphPad Prism® software, which calculated the t1/2 and goodness-of-fit, as measured by r², for each peptide.
# [8] = target: T4, MHC class I molecule HLA-A*0201 (iTopia …); test: iTopia off-rate assay, 37 C; fit R^2 0.85
# Description: as §2, §4
# [9] = target: T5, MHC class I molecule A*0201 (biotin (bound via biotin to streptavidin-coated plates)); test: iTopia affinity assay (ED50), peptide titration on plate-bound MHC
# T5 construct: also called A2; HLA-A2
# Description: as §2
# (§5) Dose-response curves of peptide binding to MHC were prepared by peptide titration to determine the ED50 measurement for each peptide. Values for the concentrations tested (in duplicate) were obtained as a percentage of the highest (9000×) concentration of the positive control peptide. A dose-response curve was generated using GraphPad Prism® curve fitting software, which automatically calculated the ED50 (in Molarity) for each peptide.
# [10] = target: T6, MHC class I molecule A*0101 (biotin (bound via biotin to streptavidin-coated plates)); test: as above
# T6 construct: also called A1; HLA-A1
# Description: as §2, §5
# [11] = target: T7, MHC class I allele B*0702 monomer (human, biotinylated, bound to streptavidin-coated plate); test: iTopia, multiparametric iScore
# T7 construct: also called B7; HLA-B7
# How it was run: as §1
# [12] = target: T7, MHC class I allele B*0702 monomer; test: iTopia, multiparametric iScore; remark: listed apart in the source
# Description: as §2, §3
# [13] = target: T8, MHC class I molecule A*0301 (biotin (bound via biotin to streptavidin-coated plates)); test: iTopia affinity assay (ED50), peptide titration on plate-bound MHC
# T8 construct: also called A3; HLA-A3
# Description: as §2, §5
# [14] = target: T4, MHC class I molecule HLA-A*0201 (iTopia …); test: iTopia off-rate assay, 37 C; fit R^2 0.87
# Description: as §2, §4
# [15] = target: T9, MHC class I molecule B*0702 (biotin (bound via biotin to streptavidin-coated plates)); test: iTopia affinity assay (ED50), peptide titration on plate-bound MHC
# T9 construct: Methods name B*0702 as the allele used; also called B7; HLA-B7
# Description: as §2, §5
# [16] = target: T4, MHC class I molecule HLA-A*0201 (iTopia …); test: iTopia off-rate assay, 37 C; fit R^2 0.98
# Description: as §2, §4
# [17] = target: T4, MHC class I molecule HLA-A*0201 (iTopia …); test: iTopia off-rate assay, 37 C; fit R^2 0.95
# Description: as §2, §4
# [18] = target: T4, MHC class I molecule HLA-A*0201 (iTopia …); test: iTopia off-rate assay, 37 C; fit R^2 0.77
# Description: as §2, §4
# [19] = target: T4, MHC class I molecule HLA-A*0201 (iTopia …); test: iTopia off-rate assay, 37 C; fit R^2 0.9
# Description: as §2, §4
# [20] = target: T4, MHC class I molecule HLA-A*0201 (iTopia …); test: iTopia off-rate assay, 37 C; fit R^2 0.91
# Description: as §2, §4
# [21] = target: T4, MHC class I molecule HLA-A*0201 (iTopia …); test: iTopia off-rate assay, 37 C; fit R^2 0.94
# Description: as §2, §4
# [22] = target: T4, MHC class I molecule HLA-A*0201 (iTopia …); test: iTopia off-rate assay, 37 C; fit R^2 0.97
# Description: as §2, §4
binder,measurement,setting,value
LLVLYLNRK [5T4 9-mer peptide 186],iScore,[1],0
same,iScore,[2],0.386
same,iScore,[3],0.372
same,iScore,[4],0.386
same,iScore,[5],0.375
LASNHFLYL [5T4 9-mer peptide 109],iScore,[6],0.12
same,iScore,[4],0.337
same,iScore,[5],0.224
TLAELQGLP [5T4 9-mer peptide 139 TLAELQGLP],t½ half life,[7],0.7 h
LSPFAFSGS (also called Peptide No 79) [5T4 9-mer peptide 79 LSPFAFSGS],t½ half life,[8],0.4 h
KWMHNIRDA (also called Peptide No 192) [5T4 9-mer peptide 192 KWMHNIRDA],t½ half life,[8],1.4 h
LTCAYPEKM [5T4 9 mer peptide 161 (LTCAYPEKM)],EC50,[9],10 µM
same,EC50,[10],20 µM
LTYVSFRNL [5T4 9-mer peptide 125],iScore,[1],0.522
same,iScore,[2],1.11
same,iScore,[3],0.157
same,iScore,[11],0.574
same,iScore,[6],0.522
same,iScore,[4],1.11
same,iScore,[5],0.157
same,iScore,[12],0.574
LTCAYPEKM [5T4 9-mer peptide 161],iScore,[1],0.139
same,iScore,[2],0.158
same,iScore,[3],0
same,iScore,[11],0
same,iScore,[6],0.139
LASNHFLYL [5T4 9 mer peptide 109 (LASNHFLYL)],EC50,[9],0.6 µM
same,EC50,[13],30 µM
same,EC50,[10],20 µM
QNRSFEGMV (also called Peptide No 96) [5T4 9-mer peptide 96 QNRSFEGMV],t½ half life,[14],2.4 h
RLDEVRAGA [5T4 9 mer peptide 65 (RLDEVRAGA)],EC50,[9],20 µM
same,EC50,[13],40 µM
same,EC50,[15],20 µM
RLRLARLAL [5T4 9 mer peptide 8 (RLRLARLAL)],EC50,[9],0.06 µM
same,EC50,[13],0.4 µM
same,EC50,[15],0.02 µM
GLPHIRVFL [5T4 9-mer peptide 142],iScore,[1],0
same,iScore,[2],1.89
same,iScore,[3],0.319
same,iScore,[11],0.075
same,iScore,[4],1.39
same,iScore,[5],0.319
HMEGYHYRY [5T4 9 mer peptide 198 (HMEGYHYRY)],EC50,[10],3 µM
HMEGYHYRY [5T4 9-mer peptide 198],iScore,[1],0.357
same,iScore,[2],0.24
same,iScore,[3],0.189
same,iScore,[11],0
same,iScore,[6],0.357
same,iScore,[5],0.189
SSAPFLASA (also called Peptide No 22) [5T4 9-mer peptide 22 SSAPFLASA],t½ half life,[16],1.3 h
AQLPSLRHL [5T4 9-mer peptide 116 AQLPSLRHL],t½ half life,[17],0.7 h
AYVRNLFLT (also called Peptide No 46) [5T4 9-mer peptide 46 AYVRNLFLT],t½ half life,[18],6.8 h
AVSAQPPLP (also called Peptide No 26) [5T4 9-mer peptide 26 AVSAQPPLP],t½ half life,[7],1.7 h
LLAGRALQG (also called Peptide No 102) [5T4 9-mer peptide 102 LLAGRALQG],t½ half life,[19],1.4 h
ADLSPFAFS (it stands between 77 and 79; also called Peptide No 78) [5T4 9-mer peptide 78 ADLSPFAFS],t½ half life,[20],2.6 h
VCDCHMADM (also called Peptide No 149) [5T4 9-mer peptide 149 VCDCHMADM],t½ half life,[8],1.4 h
LTYVSFRNL [5T4 9 mer peptide 125 (LTYVSFRNL)],EC50,[9],0.4 µM
same,EC50,[13],3 µM
same,EC50,[15],3 µM
same,EC50,[10],3 µM
VVAALLAGR [5T4 9-mer peptide 100],iScore,[5],0.125
FARRPPLAE (also called Peptide No 56) [5T4 9-mer peptide 56 FARRPPLAE],t½ half life,[21],0.3 h
VVAALLAGR [5T4 9 mer peptide 100 (VVAALLAGR)],EC50,[13],10 µM
FLASAVSAQ (also called Peptide No 24) [5T4 9-mer peptide 24 FLASAVSAQ],t½ half life,[22],0.7 h
VPTDLPAYV [5T4 9-mer peptide 43],iScore,[6],0.098
GWVSSSSPT (also called Peptide No 14) [5T4 9-mer peptide 14 GWVSSSSPT],t½ half life,[21],1 h
LELASNHFL [5T4 9-mer peptide 108 LELASNHFL],t½ half life,[17],1.4 h
SASSFSSSA (also called Peptide No 19) [5T4 9-mer peptide 19 SASSFSSSA],t½ half life,[20],0.2 h
NNPWVCDCH [5T4 9 mer peptide 147 (NNPWVCDCH)],EC50,[13],3 µM
VPTDLPAYV [5T4 9 mer peptide 43 (VPTDLPAYV)],EC50,[9],20 µM
same,EC50,[10],20 µM
LQGLPHIRV (also called Peptide No 141) [5T4 9-mer peptide 141 LQGLPHIRV],t½ half life,[14],1.1 h
GSRLDEVRA (also called Peptide No 64) [5T4 9-mer peptide 64 GSRLDEVRA],t½ half life,[21],1.9 h
AFSGSNASV (also called Peptide No 81) [5T4 9-mer peptide 81 AFSGSNASV],t½ half life,[17],0.7 h
PLPDQCPAL (also called Peptide No 29) [5T4 9-mer peptide 29 PLPDQCPAL],t½ half life,[18],2.8 h
AGDGRLRLA (also called Peptide No 6) [5T4 9-mer peptide 6 AGDGRLRLA],t½ half life,[21],0.1 h
NLFLTGNQL (also called Peptide No 48) [5T4 9-mer peptide 48 NLFLTGNQL],t½ half life,[16],0.5 h
NLTEVPTDL (also called Peptide No 41) [5T4 9-mer peptide 41 NLTEVPTDL],t½ half life,[16],1.4 h
TSSASSFSS (also called Peptide No 18) [5T4 9-mer peptide 18 TSSASSFSS],t½ half life,[22],0.7 h
